# Results reported in patent US9119806B2, “Culturing circular ssDNA viruses for the production of vaccines” (priority 2007, dated 2015).
# Tests used:
# [1] = test system: PCV2 (field strain Imp-1121); assay: PCV2 replication in inoculated pigs given IFN-gamma or ConA; type: in vivo; conditions: pigs inoculated at 19 days of age; samples 10, 15, 21 days post inoculation
# Procedure: Pigs are inoculated with PCV2 (field strain Imp-1121) at 19 days of age. These inoculated pigs are divided in 3 groups. One group contains control pigs (only PCV2). The second group of pigs receives recombinant IFN-gamma (100,000 U per pig every three days). The third group contains pigs that receive ConA (1.5 mg/kg every three days). At different times post inoculation (10, 15, 21 days) samples are collected and the replication of the virus is assessed.
# [2] = test system: PCV2 strain Stoon-1010 in PK-15 cells; assay: Progeny PCV2 production in PK-15 cells with acidification inhibitors and/or IFN-gamma; type: cell-based, Porcine circovirus 2; conditions: IFN-gamma 500 U/ml pre-treatment
# Procedure: For progeny virus production assays, 2×10^5 cells were seeded in every well of 24-well cell culture plates. Cells were pre-treated with or without 500 U/ml IFN-gamma at 6 hours post seeding. At 24 h post-seeding, cells were washed and inoculated with the prototype PCV2 strain Stoon-1010 at an m.o.i. of 0.3 for 1 hour at 37° C. The viral inoculum was washed-off and cells were further incubated in 1 ml of culture medium with or without 25 mM ammonium chloride, 125 μM chloroquine diphosphate and/or 6 μM monensin for 24 hours. Then, the culture medium with or without endosomal-lysosomal system acidification inhibitors was replaced with fresh culture medium without inhibitors. At 1, 24, 48 and 72 hours post-inoculation the supernatant was collected. Subsequently the culture was washed once with 1 ml PBS. Both the supernatant and the washing fluid were centrifuged for 10 minutes at 15,000×g to pellet cells and debris. The centrifuged supernatant and washing fluids were combined and considered to contain the extracellular virus. Both pellets and cell cultures were freeze-thawed three times and considered to contain the intracellular virus. Intra- and extracellular virus titres were determined by titration on PCV-negative PK-15 cells as described previously. Viral antigens were detected using an IPMA as described above and PCV2 titre was expressed as log10 TCID50 per 10^5 cells.
# [3] = test system: EMC virus; conditions: porcine PK-15 cells infected with EMC virus; supplier leaflet, typical; cited from earlier work
# [4] = test system: PCV2-infected PK-15 cells; assay: Number of PCV2-infected PK-15 cells (IPMA) after treatment with cytokines or natural cytokine sources; type: cell-based, Porcine circovirus 2; conditions: for increase in PCV2-positive cells / lowest concentration inducing a significant effect on PCV2-positive cells: PK-15
# Procedure: PK-15 cells were seeded and maintained in culture medium containing 5%-10% fetal bovine serum (FBS), 0.3 mg/ml glutamine, 100 U/ml penicillin, 0.1 mg/ml streptomycin, 0.1 mg/ml kanamycin dissolved in minimal essential medium (MEM) (Gibco BRL®, Grand Island, USA) or dissolved in RPMI-1640 (GIBCO BRL®, Grand Island, USA) containing 1% nonessential amino acids (100×; GIBCO BRL®, Grand Island, USA) and 1 mM sodium pyruvate (GIBCO BRL®, Grand Island, USA). Cells were seeded at a concentration of 150,000 cells per ml of medium. For the detection of total viral antigen positive cells, the cells were seeded in 96-well microtiter plates (Nunc) (15,000-20,000 cells per well). To detect the expression of specific viral antigens, cells were seeded on sterile cover slips in Leighton tubes (150,000 cells per tube) and finally progeny virus production assays were performed in 24-well plates containing […].
# In order to use cells, more related to the target cells in vivo, the monocytic cell line 3D4/31 was used to confirm the effect of the different cytokines on the number of PCV2-infected cells. The 3D4/31 cell line is a porcine monomyeloid cell lines that was established following transfection of primary porcine alveolar macrophage cultures with plasmid pSV3neo, carrying genes for neomycin resistance and SV40 large T antigen. (Weingartl et al. (2002) J Virol Methods. 10, 203-216). These cells were maintained in a 1:1 mixture of RPMI-1640 (Invitrogen) and DMEM (Invitrogen) supplemented with 10% fetal bovine serum, 0.3 mg/ml glutamine, 100 U/ml penicillin, 0.1 mg/ml streptomycin, 0.1 mg/ml kanamycin and 1% non-essential amino acids 100× (GIBCO BRL®, Grand Island, USA). These experiments were also performed in 96-well plates containing the same number of cells. Furthermore, to monitor the effect of IFN-gamma on the entry of PCV2 virion-like particles was determined, 3D4/31 cells were seeded at 2×10^5 cells/ml of medium onto microscopic slides mounted with an 8 well cell culture silicone chamber (Vivascience AG, Hanover). In all inoculations, the same PCV2-strain (Stoon-1010) was used at a multiplicity of infection of 0.01. The virus was diluted in MEM and inoculated on the cell cultures by incubating cells and virus for 1 hour at 37° C. After 1 hour, the inoculum was removed, the cultures were washed twice with MEM and new culture medium was added.
# The influence of the cytokines on the infection of PCV2 in PK-15 and 3D4/31 cells was determined by adding two-fold-dilution series of the cytokines to the medium of the cells before, during or after the inoculation. IL-1, IL-6, […] and IFN-alpha were used in concentrations ranging from 0.25-250 Units/ml (U/ml), IFN-gamma was used in concentrations ranging from 0.25-1000 U/ml and IL-10 was used in concentrations from 0.13-125 U/ml. Cell cultures were either pre-treated with the cytokines for 24 hours before inoculation, treated during the inoculation or the cytokines were added in the medium after the inoculation. After 36 hours of incubation at 37° C. in an environment supplemented with 5% CO2, the cells were fixed by drying and frozen at −20° C. The plates were stained with an immuno-peroxydase monolayer assay (IPMA) as described by Sanchez et al. (2003, Vet Microbiol 95, 15-25) and the number of PCV2-positive cells was counted by light microscopy. In each plate a control was inoculated with an equal dose of mock-treated PCV2 (treated with MEM without cytokines). The number of infected cells in this well was used as the reference and all results were expressed as a ratio to this reference.
# Two-fold dilutions of the BAL-fluids of the PRCV and mock-inoculated pigs were added to the medium of PCV2-inoculated PK-15 cells after inoculation. Concentrations of the added BAL-fluids ranged from 1.25 to 5%. Supernatants of ConA and mock-stimulated PBMC's were also added to the culture medium of PK-15 cells after inoculation in concentrations ranging from […] to 50%. […]
molecule,measurement,setting,value
"IFN-gamma: Porcine interferon gamma purchased from R&D systems (protein, UniProt P17803 24-166, looked up) Interferon gamma: QAPFFKEITILKDYFNASTSDVPNGGPLFLEILKNWKEESDKKIIQSQIVSFYFKFFEIFKDNQAIQRSMDVIKQDMFQRFLNGSSGKLNDFEKLIKIPVDNLQIQRKAISELIKVMNDLSPRSNLRKRKRSQTMFQGQRASK",replication of PCV2 compared to control pigs (in words),[1],increase in the replication of PCV2
same,PCV2 titres at 1 hpi,[2]; 1 hpi,2.0 TCID50 per 10^5 cells
same,PCV2 titres at 24 hpi,[2]; 24 hpi,2.1 TCID50 per 10^5 cells
same,PCV2 titres at 48 hpi,[2]; 48 hpi,3.4 TCID50 per 10^5 cells
same,PCV2 titres at 72 hpi,[2]; 72 hpi,3.9 TCID50 per 10^5 cells
same,ED50 for anti-viral effect,[3],0.015 to 0.045 ng/mL
same,increase in PCV2-positive cells,[4]; 1000 U/ml added after inoculation,791±105%
same,increase in PCV2-positive cells,[4]; 1000 U/ml added before inoculation,518±134%
same,increase in PCV2-positive cells,[4]; 1000 U/ml added during inoculation,270±57%
same,lowest concentration inducing a significant effect on PCV2-positive cells,[4]; administered after inoculation,2 U/ml
same,lowest concentration inducing a significant effect on PCV2-positive cells,[4]; administered before inoculation,16 U/ml
same,lowest concentration inducing a significant effect on PCV2-positive cells,[4]; administered during inoculation,2 U/ml
same,change in the number of PCV2-positive cells (in words),"[4]; PK-15 cells, cytokine dilution series, before, during or after inoculation, 36 h",dose-dependent increase
